Experimental data from patent publication US20110300156A1 (Genmab, published 2011).

T1: murine tissue factor (TF) on transfected HEK293F cells (murine, UniProt P20352 29-294)
T1 construct: whole, on cells; also called murine TF; TFmm
T1 sequence (looked up): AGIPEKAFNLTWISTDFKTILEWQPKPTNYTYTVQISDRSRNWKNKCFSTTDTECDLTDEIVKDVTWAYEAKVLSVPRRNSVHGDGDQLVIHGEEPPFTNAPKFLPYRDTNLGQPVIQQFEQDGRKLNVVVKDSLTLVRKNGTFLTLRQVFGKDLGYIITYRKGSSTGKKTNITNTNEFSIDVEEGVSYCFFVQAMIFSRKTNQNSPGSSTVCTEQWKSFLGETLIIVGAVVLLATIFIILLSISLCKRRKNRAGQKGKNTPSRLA


Legend:
[1] = target: T2, human tissue factor (TF), membrane-bound on cells (human, UniProt P13726 33-295); assay: FACS, TF transfected CHO cells (S1015-TF)
T2 construct: whole, on cells; also called cellular TF
Method in brief: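 Flow cytometry readout of PE-labelled anti-human IgGFc bound to cells after a 30 min on-ice incubation with HuMab dilution series. Binding curves analysed by non-linear regression (sigmoidal dose-response, variable slope). HuMab-KLH served as negative control.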

[2] = target: T3, TFECDHis (extracellular domain of tissue factor, amino acid 1-251, with C-terminal His tag) (human, UniProt P13726 33-251); assay: SPR BIAcore 3000, HuMab immobilized, TFECDHis analyte
T3 construct: range 1-251; The stated range 1-251 starts at residue 1 of NP-001984; also called extracellular domain of TF
Method in brief: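 HuMab antibodies (500 RU) amine-coupled on a CM-5 chip; TFECDHis concentration series in HBS-EP run over them at 30 μl/min for 180 sec. Surface regenerated with glycine pH 2.0 or acetate pH 3.0; kinetics from double-referenced 1:1 Langmuir fitting.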

[3] = target: T1, murine tissue factor (TF) on …; assay: FACS on transfected HEK293F cells, 30 µg/mL antibody [Figure 18; no figure label on the sheet]
Procedure: (§1) Cells were resuspended in PBS (2×10⁶ cells/ml), put in 96-well V-bottom plates (50 μl/well). 50 μl of serially diluted HuMab in FACS buffer (PBS supplemented with 0.1% BSA and 0.02% Na-azide) was added to the cells and incubated for 30 minutes on ice. After washing three times with FACS buffer, 50 μl of phycoerythrin (PE)-conjugated goat anti-human IgGFc (Jackson ImmunoResearch), diluted 1:100 in FACS buffer, was added. After 30 minutes on ice (in the dark), cells were washed three times, and specific binding of the HuMabs was detected by flow cytometry on a FACSCalibur (BD Biosciences). HuMab-KLH was used as a negative control. Mouse anti-TF followed by PE-conjugated anti-mouse IgGFc was used as positive control. Binding curves were analyzed using non-linear regression (sigmoidal dose-response with variable slope) using GraphPad Prism V4.03 software (GraphPad Software, San Diego, Calif., USA).
To determine domains important for binding of anti-TF HuMabs to human TF, DNA shuffling was performed between human and murine TF. Shuffle constructs were prepared from DNA encoding human TF, by replacing human domains with murine domains and from DNA encoding murine TF by replacing murine domains with human domains.

[4] = target: T2, human tissue factor (TF), …; assay: FACS on AsPC-1 cells (~175.000 TF molecules/cell) [panel AsPC-1 cells]
Procedure: as §1
(§2) Binding of anti-TF HuMabs to membrane-bound TF on cell lines expressing different levels of TF was determined by FACS analysis, essentially as described supra. Mouse anti-TF antibody followed by PE-conjugated anti-mouse IgGFc was used as a positive control. Fluorescence was measured on a FACSCantoII. Binding curves were analyzed essentially as described supra, using GraphPad Prism 5 software. The amount of TF molecules on cell lines was determined by Qifi kit (Dako, Glostrup, Denmark), according to the manufacturer's instructions.

[5] = target: T2, human tissue factor (TF), …; assay: FACS on SK-OV-3 cells (~60.000 TF molecules/cell) [panel SK-OV-3 cells]
Procedure: as §1
as §2, with “Mouse anti-TF antibody followed by PE-conjugated anti-mouse IgGFc was used as a positive control.” left out

[6] = target: T1, murine tissue factor (TF) on …; assay: FACS on transfected HEK293F cells, 30 µg/mL antibody [panel M]
[7] = target: T3, TFECDHis (extracellular domain of …); assay: SPR avidity format: TFECDHis immobilized, bivalent HuMab as analyte (printed as avidity nM)
Procedure: Antibody binding to TF was analyzed by surface plasmon resonance in a BIAcore 3000 (GE Healthcare). TFECDHis was used for the analysis. HuMab antibodies (500 resonance units) were immobilized on the CM-5 sensor chip according to the procedure recommended by the manufacturer. Briefly, after surface activation by EDC and NHS HuMab antibody was injected over the activated CM-5 surface in 10 mM sodium-acetate, pH ranging from 4.0 to 5.5 at 5 μl/min. followed by 1 M Ethanolamine for deactivation. Concentration series of TFECDHis in HBS-EP buffer were injected over the immobilized antibodies at a flow rate of 30 μl/min for 180 sec. Regeneration of the HuMab surface was performed by injection of 10 mM Glycine-HCl pH 2.0 or 10 mM sodium acetate pH 3.0. Kinetic analysis was performed using double reference subtraction and model 1:1 (langmuir) binding analysis.
TF (TFECDHis) binding to TF-specific HuMabs was determined essentially as described above, with TFECDHis being immobilized on the CM-5 sensor chip (300 resonance units), and concentration series of Humab antibodies used for kinetic analysis. Kinetic analysis was performed using double reference subtraction and model 1:1 (langmuir) binding analysis.

Binder	EC50 [1] [nM]	Kd [2] [nM]	binding result [3]	EC50 (read off the curve) [4] [µg/mL]	EC50 (read off the curve) [5] [µg/mL]	binding result [6]	Kd [7] [nM]
anti-TF HuMab 013 (antibody, V domains shown, Human monoclonal antibody from HuMab mice; also called HuMab-TF-13) VH: EVQLVQSGAEVKKPGESLKISCKGSGYSFTSYWIGWVRQMPGKGLEWMGIIYPGDSDTRYSPSFQGQVTISADKSISTAYLQWSSLKASDTAMYYCARIHRGAGYSSSWPGAFDIWGQGTMVTVSS VL: DIQMTQSPSSLSASVGDRVTITCRASQGISRWLAWYQQKPEKAPKSLIYAASSLQSGVPSRFSGSGSGTDFTLTISSLQPEDFATYYCQQYDSDPITFGQGTRLEIK	1.07	2.78	no binding (tested: 30 µg/mL)	–	–	–	–
anti-TF HuMab 109 (antibody, V domains shown, Human monoclonal antibody from HuMab mice) VH: QVQLVESGGGVVQPGRSLRLSCPASGFTFSIYAMHWVRQAPGKGLEWVAVVSNDGYNKYYADSVKGRFTISRDNSKDTLYLQMNSLRAEDTAVYYCARDGQLGRGYFDYWGQGTLVTVSS VL: EIVLTQSPATLSLSPGERAILSCRASQSVSSYLAWYQQKPGQAPRLLIYDASNRATGIPARFSGSGSGTDFTLTISSLEPEDFAVYYCQQRSNWPLTFGGGTKVEIK	0.92	4.75	–	~0.1	~0.04	no binding (tested: 30 µg/mL)	0.01
